{"source": "patent CN114805559A", "about": "(UNIV ZHEJIANG, dated 2022)", "target": "新型冠状病毒SARS-CoV-2受体结合域RBD重组蛋白 (pET-28a(+)/RBD, E. coli Rosetta) (SARS-CoV-2, UniProt P0DTC2 319-541)", "experiment": "BLI (Fortebio), KD = Kdis/Kon"}
{"binder": "全人源抗新冠病毒受体结合域单链抗体No4 (purified recombinant scFv from pET-30a(+)/anti-RBD No4 in E. coli Rosetta) (scFv, not shown: small tags and cut ends, also called 抗RBD单链抗体No4; 抗RBD单链重组抗体No4) scFv: RSSCRNPGGALVQPGGSLRLSCETSGFTFSRYWMNWFRQAPGKGLVWVSHISNNGRVTGYADSVKGRFTISRDNAKNILYLQMSGLRAEDTSLYYCARVHNAFCNSVSCVDAFDVWGQGTTVTVSSGGGGSGGGGSGGGGSDIVMTQTPSSLSASVGDRVTITCRASQRINSLLNWYQHKPGKPPKLLIYGASTLQSGVPSRFSGSESGADFTLTISSLQPEDVGTYYCQKYNSAPHTFGQGTRLEIK", "values": [{"measurement": "Kd", "value": 1.61, "unit": "nM"}]}
